Numbered stars: 1 amine (or outer) side, 2 acyl side, 3 side chain; on linkers, the order of the positions; unused ones are H or OH. Bridge positions count the residues as written; N and C are the ends. Side chains are listed from the residue outwards. Ends that are not written are not given here. * marks the point of attachment. C20 diacid = O=C(O)CCCCCCCCCCCCCCCCCCC(=O)*; γGlu = O=C(O)[C@H](CCC(=O)[*:2])N[*:1]; AEEA = NCCOCCOCC(=O)O
T1: human amylin receptor (human calcitonin receptor co-expressed with RAMP-3; amylin 3(a) receptor) (human, UniProt P30988 25-474; O60896 24-148, limits assumed)
T1 construct: whole, on cells; Used as cell membranes prepared from Amylin 3(a)/CRE-luc BHK cells (Assay V), not as intact cells; also called hAmylin-R; hAmylinR
T1 sequence (looked up) 1: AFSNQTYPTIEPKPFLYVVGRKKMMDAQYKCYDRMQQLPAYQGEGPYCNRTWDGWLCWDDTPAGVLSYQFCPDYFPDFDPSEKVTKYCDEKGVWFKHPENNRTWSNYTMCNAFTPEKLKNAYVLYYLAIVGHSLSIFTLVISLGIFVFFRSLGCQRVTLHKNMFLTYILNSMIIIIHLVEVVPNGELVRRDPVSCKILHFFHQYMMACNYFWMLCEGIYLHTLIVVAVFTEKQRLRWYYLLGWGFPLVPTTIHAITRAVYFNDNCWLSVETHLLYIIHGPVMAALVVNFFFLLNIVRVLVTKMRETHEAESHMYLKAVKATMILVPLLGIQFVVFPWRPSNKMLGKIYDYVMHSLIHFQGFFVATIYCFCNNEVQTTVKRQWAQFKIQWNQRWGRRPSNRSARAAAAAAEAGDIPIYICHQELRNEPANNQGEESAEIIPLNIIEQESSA
T1 sequence (looked up) 2: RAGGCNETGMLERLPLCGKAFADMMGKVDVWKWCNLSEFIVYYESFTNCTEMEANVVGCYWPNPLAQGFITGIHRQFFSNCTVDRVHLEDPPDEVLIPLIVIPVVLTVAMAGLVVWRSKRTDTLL

T2: human calcitonin receptor (human, UniProt P30988 25-474)
T2 construct: whole, on cells; Used as cell membranes prepared from the transfected BHK cells (Assay VII), not as intact cells; also called hCTR; hCT
T2 sequence (looked up): T1 sequence (looked up) 1

B1: N^ε1-[2-[2-[2-[[(4S)-4-carboxy-4-(19-carboxynonadecanoylamino)butanoyl]amino]ethoxy]ethoxy]acetyl]-[Arg17,Pro21,Pro27,Pro31,His35]-h-amylin (peptide)
peptide: K([AEEA-γGlu-C20 diacid])CNTATCATQRLANFLRHSSPNFGAIPSSTPVGSHTY-NH2
modifications: disulfide 2-7; N-terminus assumed
SMILES: CC[C@H](C)[C@H](NC(=O)[C@H](C)NC(=O)CNC(=O)[C@H](Cc1ccccc1)NC(=O)[C@H](CC(N)=O)NC(=O)[C@@H]1CCCN1C(=O)[C@H](CO)NC(=O)[C@H](CO)NC(=O)[C@H](Cc1c[nH]cn1)NC(=O)[C@H](CCCNC(=N)N)NC(=O)[C@H](CC(C)C)NC(=O)[C@H](Cc1ccccc1)NC(=O)[C@H](CC(N)=O)NC(=O)[C@H](C)NC(=O)[C@H](CC(C)C)NC(=O)[C@H](CCCNC(=N)N)NC(=O)[C@H](CCC(N)=O)NC(=O)[C@@H](NC(=O)[C@H](C)NC(=O)[C@@H]1CSSC[C@H](NC(=O)[C@@H](N)CCCCNC(=O)COCCOCCNC(=O)CC[C@H](NC(=O)CCCCCCCCCCCCCCCCCCC(=O)O)C(=O)O)C(=O)N[C@@H](CC(N)=O)C(=O)N[C@@H]([C@@H](C)O)C(=O)N[C@@H](C)C(=O)N[C@@H]([C@@H](C)O)C(=O)N1)[C@@H](C)O)C(=O)N1CCC[C@H]1C(=O)N[C@@H](CO)C(=O)N[C@@H](CO)C(=O)N[C@H](C(=O)N1CCC[C@H]1C(=O)N[C@H](C(=O)NCC(=O)N[C@@H](CO)C(=O)N[C@@H](Cc1c[nH]cn1)C(=O)N[C@H](C(=O)N[C@@H](Cc1ccc(O)cc1)C(N)=O)[C@@H](C)O)C(C)C)[C@@H](C)O
notes: also called compound 57
B2: N^ε1-[2-[2-[2-[[(4S)-4-carboxy-4-(19-carboxynonadecanoylamino)butanoyl]amino]ethoxy]ethoxy]acetyl]-[Arg17,Pro21,Pro27,Pro34,His35]-h-amylin (peptide)
peptide: K([AEEA-γGlu-C20 diacid])CNTATCATQRLANFLRHSSPNFGAIPSSTNVGPHTY-NH2
modifications: disulfide 2-7; N-terminus assumed
SMILES: CC[C@H](C)[C@H](NC(=O)[C@H](C)NC(=O)CNC(=O)[C@H](Cc1ccccc1)NC(=O)[C@H](CC(N)=O)NC(=O)[C@@H]1CCCN1C(=O)[C@H](CO)NC(=O)[C@H](CO)NC(=O)[C@H](Cc1c[nH]cn1)NC(=O)[C@H](CCCNC(=N)N)NC(=O)[C@H](CC(C)C)NC(=O)[C@H](Cc1ccccc1)NC(=O)[C@H](CC(N)=O)NC(=O)[C@H](C)NC(=O)[C@H](CC(C)C)NC(=O)[C@H](CCCNC(=N)N)NC(=O)[C@H](CCC(N)=O)NC(=O)[C@@H](NC(=O)[C@H](C)NC(=O)[C@@H]1CSSC[C@H](NC(=O)[C@@H](N)CCCCNC(=O)COCCOCCNC(=O)CC[C@H](NC(=O)CCCCCCCCCCCCCCCCCCC(=O)O)C(=O)O)C(=O)N[C@@H](CC(N)=O)C(=O)N[C@@H]([C@@H](C)O)C(=O)N[C@@H](C)C(=O)N[C@@H]([C@@H](C)O)C(=O)N1)[C@@H](C)O)C(=O)N1CCC[C@H]1C(=O)N[C@@H](CO)C(=O)N[C@@H](CO)C(=O)N[C@H](C(=O)N[C@@H](CC(N)=O)C(=O)N[C@H](C(=O)NCC(=O)N1CCC[C@H]1C(=O)N[C@@H](Cc1c[nH]cn1)C(=O)N[C@H](C(=O)N[C@@H](Cc1ccc(O)cc1)C(N)=O)[C@@H](C)O)C(C)C)[C@@H](C)O
notes: also called compound 58
B3: N^ε1-[2-[2-[2-[[(4S)-4-carboxy-4-(19-carboxynonadecanoylamino)butanoyl]amino]ethoxy]ethoxy]acetyl]-[Arg17,Pro21,Pro27,Pro34]-h-amylin (peptide)
peptide: K([AEEA-γGlu-C20 diacid])CNTATCATQRLANFLRHSSPNFGAIPSSTNVGPNTY-NH2
modifications: disulfide 2-7; N-terminus assumed
SMILES: CC[C@H](C)[C@H](NC(=O)[C@H](C)NC(=O)CNC(=O)[C@H](Cc1ccccc1)NC(=O)[C@H](CC(N)=O)NC(=O)[C@@H]1CCCN1C(=O)[C@H](CO)NC(=O)[C@H](CO)NC(=O)[C@H](Cc1c[nH]cn1)NC(=O)[C@H](CCCNC(=N)N)NC(=O)[C@H](CC(C)C)NC(=O)[C@H](Cc1ccccc1)NC(=O)[C@H](CC(N)=O)NC(=O)[C@H](C)NC(=O)[C@H](CC(C)C)NC(=O)[C@H](CCCNC(=N)N)NC(=O)[C@H](CCC(N)=O)NC(=O)[C@@H](NC(=O)[C@H](C)NC(=O)[C@@H]1CSSC[C@H](NC(=O)[C@@H](N)CCCCNC(=O)COCCOCCNC(=O)CC[C@H](NC(=O)CCCCCCCCCCCCCCCCCCC(=O)O)C(=O)O)C(=O)N[C@@H](CC(N)=O)C(=O)N[C@@H]([C@@H](C)O)C(=O)N[C@@H](C)C(=O)N[C@@H]([C@@H](C)O)C(=O)N1)[C@@H](C)O)C(=O)N1CCC[C@H]1C(=O)N[C@@H](CO)C(=O)N[C@@H](CO)C(=O)N[C@H](C(=O)N[C@@H](CC(N)=O)C(=O)N[C@H](C(=O)NCC(=O)N1CCC[C@H]1C(=O)N[C@@H](CC(N)=O)C(=O)N[C@H](C(=O)N[C@@H](Cc1ccc(O)cc1)C(N)=O)[C@@H](C)O)C(C)C)[C@@H](C)O
notes: also called compound 50
B4: N^ε1-[2-[2-[2-[[(4S)-4-carboxy-4-(19-carboxynonadecanoylamino)butanoyl]amino]ethoxy]ethoxy]acetyl]-[His14,Arg17,Pro21,Pro27,Pro31]-h-amylin (peptide)
peptide: K([AEEA-γGlu-C20 diacid])CNTATCATQRLAHFLRHSSPNFGAIPSSTPVGSNTY-NH2
modifications: disulfide 2-7; N-terminus assumed
SMILES: CC[C@H](C)[C@H](NC(=O)[C@H](C)NC(=O)CNC(=O)[C@H](Cc1ccccc1)NC(=O)[C@H](CC(N)=O)NC(=O)[C@@H]1CCCN1C(=O)[C@H](CO)NC(=O)[C@H](CO)NC(=O)[C@H](Cc1c[nH]cn1)NC(=O)[C@H](CCCNC(=N)N)NC(=O)[C@H](CC(C)C)NC(=O)[C@H](Cc1ccccc1)NC(=O)[C@H](Cc1c[nH]cn1)NC(=O)[C@H](C)NC(=O)[C@H](CC(C)C)NC(=O)[C@H](CCCNC(=N)N)NC(=O)[C@H](CCC(N)=O)NC(=O)[C@@H](NC(=O)[C@H](C)NC(=O)[C@@H]1CSSC[C@H](NC(=O)[C@@H](N)CCCCNC(=O)COCCOCCNC(=O)CC[C@H](NC(=O)CCCCCCCCCCCCCCCCCCC(=O)O)C(=O)O)C(=O)N[C@@H](CC(N)=O)C(=O)N[C@@H]([C@@H](C)O)C(=O)N[C@@H](C)C(=O)N[C@@H]([C@@H](C)O)C(=O)N1)[C@@H](C)O)C(=O)N1CCC[C@H]1C(=O)N[C@@H](CO)C(=O)N[C@@H](CO)C(=O)N[C@H](C(=O)N1CCC[C@H]1C(=O)N[C@H](C(=O)NCC(=O)N[C@@H](CO)C(=O)N[C@@H](CC(N)=O)C(=O)N[C@H](C(=O)N[C@@H](Cc1ccc(O)cc1)C(N)=O)[C@@H](C)O)C(C)C)[C@@H](C)O
notes: also called compound 61
B5: N^ε1-[2-[2-[2-[[(4S)-4-carboxy-4-(19-carboxynonadecanoylamino)butanoyl]amino]ethoxy]ethoxy]acetyl]-[His14,Arg17,Pro21,Pro27,Pro34]-h-amylin (peptide)
peptide: K([AEEA-γGlu-C20 diacid])CNTATCATQRLAHFLRHSSPNFGAIPSSTNVGPNTY-NH2
modifications: disulfide 2-7; N-terminus assumed
SMILES: CC[C@H](C)[C@H](NC(=O)[C@H](C)NC(=O)CNC(=O)[C@H](Cc1ccccc1)NC(=O)[C@H](CC(N)=O)NC(=O)[C@@H]1CCCN1C(=O)[C@H](CO)NC(=O)[C@H](CO)NC(=O)[C@H](Cc1c[nH]cn1)NC(=O)[C@H](CCCNC(=N)N)NC(=O)[C@H](CC(C)C)NC(=O)[C@H](Cc1ccccc1)NC(=O)[C@H](Cc1c[nH]cn1)NC(=O)[C@H](C)NC(=O)[C@H](CC(C)C)NC(=O)[C@H](CCCNC(=N)N)NC(=O)[C@H](CCC(N)=O)NC(=O)[C@@H](NC(=O)[C@H](C)NC(=O)[C@@H]1CSSC[C@H](NC(=O)[C@@H](N)CCCCNC(=O)COCCOCCNC(=O)CC[C@H](NC(=O)CCCCCCCCCCCCCCCCCCC(=O)O)C(=O)O)C(=O)N[C@@H](CC(N)=O)C(=O)N[C@@H]([C@@H](C)O)C(=O)N[C@@H](C)C(=O)N[C@@H]([C@@H](C)O)C(=O)N1)[C@@H](C)O)C(=O)N1CCC[C@H]1C(=O)N[C@@H](CO)C(=O)N[C@@H](CO)C(=O)N[C@H](C(=O)N[C@@H](CC(N)=O)C(=O)N[C@H](C(=O)NCC(=O)N1CCC[C@H]1C(=O)N[C@@H](CC(N)=O)C(=O)N[C@H](C(=O)N[C@@H](Cc1ccc(O)cc1)C(N)=O)[C@@H](C)O)C(C)C)[C@@H](C)O
notes: also called compound 68

The binders below were run against T1, human amylin receptor (human calcitonin …) (assay: ratio of hCTR binding IC50 to hAmylin-R binding IC50 (reference: human calcitonin receptor)).
Method: The resulting pellet was resuspended, homogenized and centrifuged (20.000 rpm, 15 min) in a buffer containing 20 mM Na-HEPES and 0.1 mM EDTA (pH 7.4, buffer 2). The resulting pellet was resuspended in buffer 2 and protein concentration was measured (BCA protein Assay, Pierce). The homogenate was kept cold during the whole procedure. The membranes were kept at −80° C. until use. The assay was performed in a 384 well Optiplate (PerkinElmer) in a total volume of 40 ul. Membranes were mixed with SPA beads. Final concentration of membranes 35 ng/μL final and SPA beads was 0.05 mg/well. Test-compounds were dissolved in DMSO and further diluted in assay buffer (50 mM Hepes, pH 7.4, 1 mM CaCl2, 5 mM MgCl₂, 0.1% OA and 0.02% Tween20). […] The final mixture was incubated with shaking at 400 rpm for 120 min at 25° C. prior to centrifugation (1500 rpm, 10 min). Samples were analyzed on TopCounter™ (Packard). The IC₅₀ was calculated using (one site binding competition analysis) GraphPad Prism5 as a measure of receptor affinity.
Membranes were prepared in the following way; the cells were rinsed with PBS and incubated with Versene for approximately 5 min before harvesting. The cells were flushed with PBS and the cell-suspension was centrifuged for 5 min at 1000 rpm. Cells were homogenized (Ultrathurrax) in a buffer containing 20 mM Na-HEPES and 10 mM EDTA (pH 7.4) and centrifuged at 20.000 rpm for 15 min. The resulting pellet was resuspended, homogenized and centrifuged (20.000 rpm, 15 min) in a buffer containing 20 mM Na-HEPES and 0.1 mM EDTA (pH 7.4, buffer 2). The resulting pellet was resuspended in buffer 2 and protein concentration was measured (BCA protein Assay, Pierce). The homogenate was kept cold during the whole procedure. The membranes were kept at −80° C. until use. Assay was performed in a 384 well Optiplate (PerkinElmer) in a total volume of 40 ul. Membranes were mixed with SPA beads.

Q: Which “Ratio hCT/hAmylin binding” value does the source give for B1 here?
A: 133

Q: Which “Ratio hCT/hAmylin binding” value does the source give for B2 here?
A: 109

Q: Which “Ratio hCT/hAmylin binding” value does the source give for B3 here?
A: 36

Q: B4 was tested. Which “Ratio hCT/hAmylin binding” value did it give?
A: 66.7

Q: How did the “Ratio hCT/hAmylin binding” value turn out when B5 was run?
A: 64.4

The binders below were run against T2, human calcitonin receptor (assay: SPA competition against 125I-calcitonin, membranes with human calcitonin receptor (Assay VII)).
Summary of the method: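 BHK hCTR membranes 35 ng/μL + SPA beads 0.05 mg/well; buffer 50 mM Hepes pH 7.4, 1 mM CaCl2, 5 mM MgCl₂, 0.1% OA, 0.02% Tween20. 120 min, 25° C., shaking. Scintillation count; IC50 by one-site binding competition.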

Q: For B1, which IC50 is on record?
A: 15.3 nM

Q: B2 was tested. Which IC50 did it give?
A: 9.63 nM

Q: Which IC50 does the source give for B3 here?
A: 1.38 nM

Q: For B4, which IC50 is on record?
A: 8.11 nM

Q: With B5 as the binder, how does the IC50 read?
A: 5.66 nM
